Measured values: patent US20250076311A1 (Chugai, published 2025)

What was measured:
Assay in all cases: SPR; KD of SG1 / KD of variant
[1] = target: T1, cynomolgus monkey FcγRIIa2 extracellular domain with C-terminal His-tag (cynomolgus monkey)
T1 construct: also called cyno FcγRIIa2; FcgRIIa2
T1 chain: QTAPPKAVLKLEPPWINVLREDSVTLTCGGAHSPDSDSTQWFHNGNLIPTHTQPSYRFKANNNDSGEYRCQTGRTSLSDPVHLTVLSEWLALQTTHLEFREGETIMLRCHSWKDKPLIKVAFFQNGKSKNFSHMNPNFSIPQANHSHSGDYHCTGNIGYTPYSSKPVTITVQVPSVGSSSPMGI

[2] = target: T2, cynomolgus monkey FcγRIIIaS extracellular domain with C-terminal His-tag (cynomolgus monkey, UniProt Q8SPW2 21-206 at identity 1.00))
T2 construct: also called cyno FcγRIIIaS; FcgRIIIaS
T2 chain: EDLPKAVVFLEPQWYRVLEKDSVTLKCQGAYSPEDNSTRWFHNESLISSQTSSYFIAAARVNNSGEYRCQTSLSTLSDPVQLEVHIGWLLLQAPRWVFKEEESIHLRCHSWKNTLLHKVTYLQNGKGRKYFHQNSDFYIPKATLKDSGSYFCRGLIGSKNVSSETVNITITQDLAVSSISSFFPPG

[3] = target: T3, human FcγRIIIaV extracellular domain with C-terminal His-tag (human, UniProt P08637 17-208)
T3 construct: also called human FcgRIIIaV; FcgRIIIaV

[4] = target: T4, cynomolgus monkey FcγRIIb extracellular domain with C-terminal His-tag (cynomolgus monkey)
T4 construct: also called cyno FcγRIIb; cynoFcγRIIb
T4 chain: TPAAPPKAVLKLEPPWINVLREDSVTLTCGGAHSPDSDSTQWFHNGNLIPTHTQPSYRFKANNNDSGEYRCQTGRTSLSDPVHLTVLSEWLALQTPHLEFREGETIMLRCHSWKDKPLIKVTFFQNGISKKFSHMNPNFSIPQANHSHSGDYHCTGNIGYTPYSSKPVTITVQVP

[5] = target: T5, cynomolgus monkey FcγRIIa3 extracellular domain with C-terminal His-tag (cynomolgus monkey)
T5 construct: also called cyno FcγRIIa3; FcgRIIa3
T5 chain: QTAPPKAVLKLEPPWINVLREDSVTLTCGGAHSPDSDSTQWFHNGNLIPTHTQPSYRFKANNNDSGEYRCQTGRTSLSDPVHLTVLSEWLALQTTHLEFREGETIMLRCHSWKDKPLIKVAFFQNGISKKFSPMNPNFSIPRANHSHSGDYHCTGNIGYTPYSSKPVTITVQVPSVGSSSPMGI

[6] = target: T6, cynomolgus monkey FcγRIIa1 extracellular domain with C-terminal His-tag (cynomolgus monkey)
T6 construct: also called cyno FcγRIIa1; FcgRIIa1
T6 chain: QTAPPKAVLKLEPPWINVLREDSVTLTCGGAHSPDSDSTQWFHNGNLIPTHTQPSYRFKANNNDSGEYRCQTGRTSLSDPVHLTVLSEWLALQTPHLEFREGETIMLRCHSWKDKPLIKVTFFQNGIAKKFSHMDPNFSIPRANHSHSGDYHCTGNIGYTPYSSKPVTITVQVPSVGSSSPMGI

[7] = target: T7, human FcγRIIaR extracellular domain with C-terminal His-tag (human, UniProt P12318 34-217)
T7 construct: also called human FcγRIIa (type R); FcgRIIaR
T7 chain: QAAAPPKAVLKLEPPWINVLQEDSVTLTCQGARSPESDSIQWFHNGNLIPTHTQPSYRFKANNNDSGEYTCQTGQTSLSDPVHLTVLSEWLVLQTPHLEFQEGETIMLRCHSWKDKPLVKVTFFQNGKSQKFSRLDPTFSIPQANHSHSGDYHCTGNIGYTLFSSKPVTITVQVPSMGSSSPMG

T3 sequence (P08637 17-208 F176V): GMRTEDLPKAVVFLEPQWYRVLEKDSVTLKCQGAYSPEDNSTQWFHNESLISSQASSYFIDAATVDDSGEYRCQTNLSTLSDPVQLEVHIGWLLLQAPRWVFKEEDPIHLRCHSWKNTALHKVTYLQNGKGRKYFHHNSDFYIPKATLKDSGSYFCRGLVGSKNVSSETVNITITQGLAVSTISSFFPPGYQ

B1: M103205H795-MY213 (heavy chain) with M103202L889-SK1 (light chain) (antibody, human IgG1, kappa, name in EU numbering)
heavy: QVTLKESGPVLVKPTETLTLTCTVSGIDLSHDDISWVRQAPGKGLEWVGIISYAGSTYYASWAKGRLTISKDTSKNQVVLTMTNMDPVDTATYYCARGVPAYSHGGDLWGQGTLVTVSSASTKGPSVFPLAPSSKSTSGGTAALGCLVKDYFPEPVTVSWNSGALTSGVHTFPAVLQSSGLYSLSSVVTVPSSSLGTQTYICNVNHKPSNTKVDKKVEPKSCDKTHTCPPCPAPELLNGPSVFLFPPKPKDTLMISRTPEVTCVVVDVSDEDPEVKFNWYVDGVEVHNAKTKPREEQYNSTYRVVSVLTVLHQDWLNGKEYKCKVSNKALPKPIEKTISKAKGQPREPQVYTLPPSREEMTKNQVSLTCLVKGFYPSDIAVEWESNGQPENNYKTTPKVLDSDGSFFLYSKLTVDKSRWQQGNVFSCSVMHEALHNHYTQKSLSLSP
light: DIVMTQSPATLSLSPGERATLSCTSSQSVYHANWLSWFQQKPGQPPKLLIYWASTLAYGVPSRFSGSGSGTDFTLTISSLQPEDAATYYCAGGYGGGRYAFGQGTKVEIKRTVAAPSVFIFPPSDEQLKSGTASVVCLLNNFYPREAKVQWKVDNALQSGNSQESVTEQDSKDSTYSLSSTLTLSKADYEKHKVYACEVTHQGLSSPVTKSFNRGEC
notes: Substitutions introduced into M103205H795-SG1; positions in EU numbering
KD fold (SG1 = 1) [1]: 9.8 fold
KD fold (SG1 = 1) [2]: 0.19 fold
KD fold (SG1 = 1) [3]: 0.07 fold
KD fold (SG1 = 1) [4]: 11.3 fold

B2: M103205H795-MY308 (heavy chain) with M103202L889-SK1 (light chain) (antibody, human IgG1, kappa, name in EU numbering)
heavy: QVTLKESGPVLVKPTETLTLTCTVSGIDLSHDDISWVRQAPGKGLEWVGIISYAGSTYYASWAKGRLTISKDTSKNQVVLTMTNMDPVDTATYYCARGVPAYSHGGDLWGQGTLVTVSSASTKGPSVFPLAPSSKSTSGGTAALGCLVKDYFPEPVTVSWNSGALTSGVHTFPAVLQSSGLYSLSSVVTVPSSSLGTQTYICNVNHKPSNTKVDKKVEPKSCDKTHTCPPCPAPELLTGPSVFLFPPKPKDTLMISRTPEVTCVVVDVSEEDPEVKFNWYVDGVEVHNAKTKPREEQYNSTYRVVSVLTVLHQDWLNGKEYKCKVSNKALPKPIEKTISKAKGQPREPQVYTLPPSREEMTKNQVSLTCLVKGFYPSDIAVEWESNGQPENNYKTTPPVLDSDGSFFLYSKLTVDKSRWQQGNVFSCSVMHEALHNHYTQKSLSLSP
light: DIVMTQSPATLSLSPGERATLSCTSSQSVYHANWLSWFQQKPGQPPKLLIYWASTLAYGVPSRFSGSGSGTDFTLTISSLQPEDAATYYCAGGYGGGRYAFGQGTKVEIKRTVAAPSVFIFPPSDEQLKSGTASVVCLLNNFYPREAKVQWKVDNALQSGNSQESVTEQDSKDSTYSLSSTLTLSKADYEKHKVYACEVTHQGLSSPVTKSFNRGEC
notes: as for B1
KD fold (SG1 = 1) [5]: 1.5 fold
KD fold (SG1 = 1) [1]: 1.1 fold
KD fold (SG1 = 1) [2]: 0.16 fold
KD fold (SG1 = 1) [3]: 0.09 fold

B3: M103205H795-MY219 (heavy chain) with M103202L889-SK1 (light chain) (antibody, human IgG1, kappa, name in EU numbering)
heavy: QVTLKESGPVLVKPTETLTLTCTVSGIDLSHDDISWVRQAPGKGLEWVGIISYAGSTYYASWAKGRLTISKDTSKNQVVLTMTNMDPVDTATYYCARGVPAYSHGGDLWGQGTLVTVSSASTKGPSVFPLAPSSKSTSGGTAALGCLVKDYFPEPVTVSWNSGALTSGVHTFPAVLQSSGLYSLSSVVTVPSSSLGTQTYICNVNHKPSNTKVDKKVEPKSCDKTHTCPPCPAPELLGYPSVFLFPPKPKDTLMISRTPEVTCVVVDVSDEDPEVKFNWYVDGVEVHNAKTKPREEQYNSTYRVVSVLTVLHQDWLNGKEYKCKVSNKALPKPIEKTISKAKGQPREPQVYTLPPSREEMTKNQVSLTCLVKGFYPSDIAVEWESNGQPENNYKTTPPVLDSDGSFFLYSKLTVDKSRWQQGNVFSCSVMHEALHNHYTQKSLSLSP
light: DIVMTQSPATLSLSPGERATLSCTSSQSVYHANWLSWFQQKPGQPPKLLIYWASTLAYGVPSRFSGSGSGTDFTLTISSLQPEDAATYYCAGGYGGGRYAFGQGTKVEIKRTVAAPSVFIFPPSDEQLKSGTASVVCLLNNFYPREAKVQWKVDNALQSGNSQESVTEQDSKDSTYSLSSTLTLSKADYEKHKVYACEVTHQGLSSPVTKSFNRGEC
notes: as for B1
KD fold (SG1 = 1) [2]: 0.06 fold
KD fold (SG1 = 1) [6]: 0.9 fold
KD fold (SG1 = 1) [3]: 0.01 fold

B4: M103205H795-MY228 (heavy chain) with M103202L889-SK1 (light chain) (antibody, human IgG1, kappa, name in EU numbering)
heavy: QVTLKESGPVLVKPTETLTLTCTVSGIDLSHDDISWVRQAPGKGLEWVGIISYAGSTYYASWAKGRLTISKDTSKNQVVLTMTNMDPVDTATYYCARGVPAYSHGGDLWGQGTLVTVSSASTKGPSVFPLAPSSKSTSGGTAALGCLVKDYFPEPVTVSWNSGALTSGVHTFPAVLQSSGLYSLSSVVTVPSSSLGTQTYICNVNHKPSNTKVDKKVEPKSCDKTHTCPPCPAPELLGYPSVFLFPPKPKDTLMISRTPEVTCVVVDVSDEDPEVKFNWYVDGVEVHNAKTKPREELYNSTYRVVSVLTVLHQDWLNGKEYKCKVSNKALPKPIEKTISKAKGQPREPQVYTLPPSREEMTKNQVSLTCLVKGFYPSDIAVEWESNGQPENNYKTTPPVLDSDGSFFLYSKLTVDKSRWQQGNVFSCSVMHEALHNHYTQKSLSLSP
light: DIVMTQSPATLSLSPGERATLSCTSSQSVYHANWLSWFQQKPGQPPKLLIYWASTLAYGVPSRFSGSGSGTDFTLTISSLQPEDAATYYCAGGYGGGRYAFGQGTKVEIKRTVAAPSVFIFPPSDEQLKSGTASVVCLLNNFYPREAKVQWKVDNALQSGNSQESVTEQDSKDSTYSLSSTLTLSKADYEKHKVYACEVTHQGLSSPVTKSFNRGEC
notes: as for B1
KD fold (SG1 = 1) [7]: 6.9 fold
KD fold (SG1 = 1) [1]: 1.6 fold
KD fold (SG1 = 1) [2]: 0.04 fold
KD fold (SG1 = 1) [3]: 0.01 fold

B5: M103205H795-MY271 (heavy chain) with M103202L889-SK1 (light chain) (antibody, human IgG1, kappa, name in EU numbering)
heavy: QVTLKESGPVLVKPTETLTLTCTVSGIDLSHDDISWVRQAPGKGLEWVGIISYAGSTYYASWAKGRLTISKDTSKNQVVLTMTNMDPVDTATYYCARGVPAYSHGGDLWGQGTLVTVSSASTKGPSVFPLAPSSKSTSGGTAALGCLVKDYFPEPVTVSWNSGALTSGVHTFPAVLQSSGLYSLSSVVTVPSSSLGTQTYICNVNHKPSNTKVDKKVEPKSCDKTHTCPPCPAPELLVGPSVFLFPPKPKDTLMISRTPEVTCVVVDVSDEDPEVKFNWYVDGVEVHNAKTKPREEQYNSTYRVVSVLTVLHQDWLNGKEYKCKVSNKALPKPIEKTISKAKGQPREPQVYTLPPSREEMTKNQVSLTCLVKGFYPSDIAVEWESNGQPENNYKTTPKVLDSDGSFFLYSKLTVDKSRWQQGNVFSCSVMHEALHNHYTQKSLSLSP
light: DIVMTQSPATLSLSPGERATLSCTSSQSVYHANWLSWFQQKPGQPPKLLIYWASTLAYGVPSRFSGSGSGTDFTLTISSLQPEDAATYYCAGGYGGGRYAFGQGTKVEIKRTVAAPSVFIFPPSDEQLKSGTASVVCLLNNFYPREAKVQWKVDNALQSGNSQESVTEQDSKDSTYSLSSTLTLSKADYEKHKVYACEVTHQGLSSPVTKSFNRGEC
notes: as for B1
KD fold (SG1 = 1) [7]: 4 fold
KD fold (SG1 = 1) [5]: 5.5 fold
KD fold (SG1 = 1) [2]: 0.41 fold
KD fold (SG1 = 1) [6]: 4.2 fold
